Experimental data: a protein production outcome set (Wang et al. 2014)

Test: label from the status in PepcDB records
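Also: failed if final PepcDB status was selected cloned or expressed and not failed if soluble or beyond.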

MAGAQPGVHALQLEPPTVVETLRRGSKFIKWDEETSSRNLVTLRVDPNGFFLYWTGPNMEVDTLDISSIRDTRTGRYARLPKDPKIREVLGFGGPDARLEEKLMTVVSGPDPVNTVFLNFMAVQDDTAKVWSEELFKLAMNILAQNASRNTFLRKAYTKLKLQVNQDGRIPVKNILKMFSADKKRVETALESCGLKFNRSESIRPDEFSLEIFERFLNKLCLRPDIDKILLEIGAKGKPYLTLEQLMDFINQKQRDPRLNEVLYPPLRPSQARLLIEKYEPNQQFLERDQMSMEGFSRYLGGEENGILPLEALDLSTDMTQPLSAYFINSSHNTYLTAGQLAGTSSVEMYRQALLWGCRCVELDVWKGRPPEEEPFITHGFTMTTEVPLRDVLEAIAETAFKTSPYPVILSFENHVDSAKQQAKMAEYCRSIFGDALLIEPLDKYPLAPGVPLPSPQDLMGRILVKNKKRHRPSAGGPDSAGRKRPL
protein production: failed

MNFDRIFAWPLTSLEVFMNLALPSQYQFLPRFFRLATIAVLSNMMVPLAGLVDTAFLGHLEDIDYLAGVILGSILFDYLYRVLKFLRTSTTALTAQAVGEEDQAEVWVAGLRSALVALLLGLGILALQYPLQKFGFALLTGAPGVEQSGMDYFYGRIWGAPAVLLNFVILGWLLGQERNGLVLLISLVANFSNVGLDYLMINRWGWASAGAGWATASSQYLALALGLISIVVLAQGEKEKGEFKAAIAKLSDWGALRATIALKGNILIRFVILITTYSLFTNISSSFGTEVLAQNGLLLQIALLSQFTIQGVGMTSQTLTGNFKSKGEYQLLLPVLLTAIVTTLLMALGFAAVAIAFPETLFGLLTNHAEINDSVRQYTIWLIPLLESTALAFMLEAYFIGLKASQPLRNGVLFAFFGIYLPCLGLAIWQQSNNLLWFSLVSYMLGLVVYLGWQLLTRFSPQTLALESKQPS
protein production: failed

MRIVIAGGHGQIALRLERLLAARGDEVAGIVRKAEQADDLRAAGAEPVVLDLESASVEEVAERLRGADAAVFAAGAGPGSGVARKDTVDKAAAVLFADAAVRAGVRRFLIVSSMGADPGHQGDEIFDVYLRAKGEADAYVSSLDALDWTILRPGALTDDAGTGLVRLEAHTGRGPVPRDDVAAVLAELVDTPATNGLALELISGSAPVSVAVKSVAGN
protein production: failed

MFLKKGKKKLYKSGKNWVAALLLSAAVLSFYSAGLNQQTASAATSSQTKAVSYDKITNKQTVNYSAYVNENNRNDGLYSAPALTDVASMTSTGSAKSLNGHLVMVSEIDTTKRASTGVSYQYAKITDNNKSYWVDLRALNDSAQITSTQTVNFQAYINGDTRNDGLYSAPALTTSSSLTPLAYSKSLNKKSVMVSEINTTKRASTGLSYQYAKITYNGKTYWVDARAVFDSITSKQTNLNYYATISETNRNDGIYEEPALTSLASMASTGSVKTFDQDSVEVLEIDTTFRNSNDQKYQYAKVTNGTNTYWVDVRALNTSGFAKITSSKTEDYSAYINEANRKDSIYDNGPALTSPTTLTASALAKTVNGDQVEVIALDTTTRSNGSQYTYLEVKDGSNTYWIDSRAVTAYNFDSITNQQTVNETATINEGGRSDGLYNAPALTSPSSLTSTGSAKDLDGQTVTILEIDTTKRASNGNTYQYAKIAYNGKTYWVDARALNNSTYSGAIMVNFEDENGNQLASPIEYTGKIGSTYQPEPKAITGYSVDLAKTGSIDLTYSSTTQTITYIYEKSTATTTDLINGQGQGIDNDSWTVGSDVQPGWYKITPIGLGTDDNIVLNVEGSDSSDLPLANDISGAWFGSDSSAGEISSYQAYLTAGQVIEMQDNGTDAAAGQGLHLETLSTRPATSLIDPESPIPSSFQDLGAGIYEVGVDIRPGNYQVADILGEGYLYTDDGTVSLDLGTGHGDTSTGTITLTTGELLTSTINGISLEPEN
protein production: failed

WRRLVEEAARRDPDDVRLLVHVASDVWNFVDEHCTLVADAYRHVERQLAWRRENRLRLMTTALLDGTTRIADLPDVATALDLPEQGRYAVVSVAVAHPAGHVGTQLLSVPPGMRALWHTGTDVEHGIVHLGEREPKDLVDRVTVPIGARVGISRAVDGLAAVGDARRLAETALRACPESGGTVLLDEHLPAALLVSAPALGTALVNRVLGPLLSLDPSDRDLLLDTVSAWLDNDGSAQRAASRLYCHRNTVLNRLRRFEQLTGRCLTRPADVVDTSLALTARRL
protein production: failed

MSLFGTTSGFGTSGTSMFGSATTDNHNPMKDIEVTSSPDDSIGCLSFSPPTLPGNFLIAGSWANDVRCWEVQDSGQTIPKAQQMHTGPVLDVCWSDDGSKVFTASCDKTAKMWDLSSNQAIQIAQHDAPVKTIHWIKAPNYSCVMTGSWDKTLKFWDTRSSNPMMVLQLPERCYCADVIYPMAVVATAERGLIVYQLENQPSEFRRIESPLKHQHRCVAIFKDKQNKPTGFALGSIEGRVAIHYINPPNPAKDNFTFKCHRSNGTNTSAPQDIYAVNGIAFHPVHGTLATVGSDGRFSFWDKDARTKLKTSEQLDQPISACCFNHNGNIFAYASSYDWSKGHEFYNPQKKNYIFLRNAAEELKPRNKK
protein production: failed

SWSDLFRKCTTDEEQEMLQFLIDNKDSEILRAFVSERSILLHEEYLKWESYMTRRAKFHRLAADFAMFLSILTSLIVIFCLVYSMYQLFKTPDEHSAYDPSTRPKPKTQEVKTLKIRTE
protein production: not failed

MGHHHHHHSHMEFIVDSVDKTMHIGRQLGSLVNKGDILCLTGDLGTGKTHISKGIAEGLGIDEHITSPTFNIVNEYHSGRLTLYHFDVYRVNDPDEIEAIGFDEYIFGDGVSLIEWANYIEELIPEEYIHIKIEKLPDMGENFRKITINGYGDRYNYIKEIKE
protein production: failed

MRMRSGTAVAGVAALAVAGMALTAAFEPVWAHGPTRQKVRESIEINAAPAKVWAVIGNFQDMSWLPPVTKTEGEKGNEIGATRRLTLTGGATVDEELYKFDAAAMTYSYRITAVDVKVLPVTNYSSTLTVTPSADGKGATLEWAGAFYRGFPNNDPPPELSDEAAKTAVSGLYKAGLEALKKKIESGS
protein production: failed

MQFTDGGKEVELRLRLKTGEILSPKDISVDADGTSLAVKEKRNGLLITLLETNHLFEKIMPSETIWYIDEDQLVVNMKKVDGELKWPDIVESWESLTAGMMQLLKGASIYIVGDSTEINQKVSRELAVGLGYSPLDSKELLESFSKQTIDSWILAEGPDSVAEAESSVLESLSSHVRTVVSTLGGKHGAAGRADQWRHLYSGFTVWVSQTEATDEESAKEEARRSKQEREIGYSNADVVVKLQGWDPTHAKSVAQASLSALKQLIISDKGLPGNK
protein production: failed

MGQVEVIDRRQSVFGDDIQLQKRSSSYEIISNGVFLMSTENGRSEREMVTLGAQHMKNAVHSVLIGGLGVGITADEAVHLNDHVQVHVVEIEPSVVEWQYRYLYPFSNQALEHERTAIIISDIQQWLRTNERTYDLICLDTDNGPDWMVHKQNASLYGKIGLELVRERVRVGGAVSFWSASASESFLHELETLFDRVYEHAVSLEHHHHHH
protein production: failed

MREDAARDRMRGFGFHEHVISESIKELLEVYEDQWFLIEDDSYGPLLAICLEKQEEKEKQLAEVQANQLPENHNEEMAEEEQPNQLAVEIHEEEKEQEQDMHIEYGRDQADELSINSEAVNDPSPAAIHLGEASSDYAQSSVRGVENLHCGWLIDEEETDPEEETDPEEKETEPEDPKEKETEPEEDSDGDDDEIIQLTPEPLCEELQELLREVRGQKRRKKEMRWDK
protein production: failed

MSFKNDHKYQWKDMQGKDFLLPFIYLIGNFCLSIVILTIMIGINETQGKNNANFNANFSGTPGILMEMIAFIIIFALWILFHRHSFRQSWKQGLQNIKQHWKLIVITFIVIIVFKEIYPYLVNAFAPEHWKFEETQNDKMVEEMFATPVSTILAFFSIVIIAPMTEEFLFRHLIIGELGKKLNFYVMSVISIIVFASLHVTEAKSPLEIVMYLAIAVGIVYVYMKSQRSLAVAIALHALNNLLAYIFMIIM
protein production: failed

MDLLATRGDPVSDFSVGRVRGRHLAVPPIRHSAAPSNRHSEAPSSRARAADLDAIRLTGIAAVVVGHVWTSGPFTDALFAWHVPVFFILTGYLWKSGRTVRDEISRRSKTLLVPYVAWLAVLSVAFASVEYLRGGSLPVEALRNAVYGGAFAVRPYSAFWFVPVLFFTAVLFRWLERFPPWMAWIIAGLGLAASVFAGEVMAKTPLGIALAVPCLVFVLVGRALPAMVHRVRYKTAVGVGLVLAGVALTVGGVVQPLNMKDGDFGTVALSVVNASAISLGLILVFAALYRMVSPAVNRLTIQLASAGLVVVLTHAFFLYLLNTPASGSIFDAVVALAVPFALALLVLRSPLRRWLVG
protein production: failed

MAKEVVYRGSARQRMMQGIEILARAAIPTLGATGPSVMIQHRADGLPPISTRDGVTVANSIVLKDRVANLGARLLRDVAGTMSREAGDGTTTAIVLARHIAREMFKSLAVGADPIALKRGIDRAVARVSEDIGARAWRGDKESVILGVAAVATKGEPGVGRLLLEALDAVGVHGAVSIELGQRREDLLDVVDGYRWEKGYLSPYFVTDRARELAELEDVYLLMTDREVVDFIDLVPLLEAVTEAGGSLLIAADRVHEKALAGLLLNHVRGVFKAVAVTAPGFGDKRPNRLLDLAALTGGRAVLEAQGDRLDRVTLADLGRVRRAVVSADDTALLGIPGTEASRARLEGLRLEAEQYRALKPGQGSATGRLHELEEIEARIVGLSGKSAVYRVGGVTDVEMKERMVRIENAYRSVVSALEEGVLPGGGVGFLGSMPVLAELEARDADEARGIGIVRSALTEPLRIIGENSGLSGEAVVAKVMDHANPGWGYDQESGSFCDLHARGIWDAAKVLRLALEKAASVAGTFLTTEAVVLEIPDTDAFAGFSAEWAAATREDPRV
protein production: failed

MTTEVKQSPRERLLEAAAALTYRDGVGIGVEALCKAAGVSKRSMYQLFESKDELLAASLKERSAAFVAKALPPADDGRSPRERILYVFERVESQAGAPDFQGCRYLAVQIELKDQAHPASRVAYQIKADLMAFFRSEAERGGASDPDLLARQLILVFDGASARAGIGADNLTGLIVPTLTTLLDAADMH
protein production: not failed

MNKVLINDTTLRDGEQAAGVVFTLEEKVAIAKFLDTIGVPELEVGIPAMGEEEMRAICAISNLGLKANLLAWNRAVISDIKASVACGMERVHIAIPVSGIQIAAKFHGQWRVSLQRLKDCISFAVDQGLWVAVGGEDSSRADENFLLDVALYAQEWGASRFRFCDTVGVLDPFTTYGKVKLLVSALTIPVEVHTHNDFGMATANALAGIKAGASSVNTTVIGLGERAGNAALEEVVMAIKRIYGVDMGIDTPRLLELSQLVAAASGANVPPWKAIVGENTFAHESGIHAHGVLQNPDTYEPFAPEEVGWERRLVVGKHSGRHSVSNLLEQHGIFLNPEETQSVLDAVRQQSIKKLEHHHHHH
protein production: failed

GAPGPCGLARQNSTSLTGKPGALPANLDDMKVAELKQELKLRSLPVSGTKTELIERLRAYQDQISPVPGAPKAPAATSILHKAGEVVVAFPAARLST
protein production: failed

MAHELSAGSVFAGYRIERMLGAGGMGTVYLARNPDLPRSEALKVLAAELSRDLDFRARFVREADVAAGLDHPNIVAVHQRGQFEGRLWIAMQFVDGGNAEDALRAATMTTARAVYVIGEVAKALDYAHQQGVIHRDIKPANFLLSRAAGGDERVLLSDFGIARALGDTGLTSTGSVLATLAYAAPEVLAGQGFDGRADLYSLGCALFRLLTGEAPFAAGAGAAVAVVAGHLHQPPPTVSDRVPGLSAAMDAVIATAMAKDPMRRFTSAGEFAHAAAAALYGGATDGWVPPSPAPHVISQGAVPGSPWWQHPVGSVTALATPPGHGWPPGLPPLPRRPRRYRRGVAAVAAVMVVAAAAVTAVTMTSHQPRTATPPSAAALSPTSSSTTPPQPPIVTRSRLPGLLPPLDDVKNFVGIQNLVAHEPMLQPQTPNGSINPAECWPAVGGGVPSAYDLGTVIGFYGLTIDEPPTGTAPNQVGQLIVAFRDAATAQRHLADLASIWRRCGGRTVTLFRSEWRRPVELSTSVPEVVDGITTMVLTAQGPVLRVREDHAIAAKNNVLVDVDIMTPDTSRGQQAVIGITNYILAKIPG
protein production: failed
